Assay results: patent US20230002480A1

How the values were obtained:
Experiment in all cases: cell-based or functional assay
[1] = target: HIV-1 Env of pseudovirus 1056_10_TA11_1826 (HIV-1)
[2] = target: HIV-1 Env of pseudovirus 1394C9G1(Rev-) (HIV-1)
[3] = target: HIV-1 Env of pseudovirus 191084 B7-19 (HIV-1)
[4] = target: HIV-1 Env of pseudovirus 191955_A11 (HIV-1)
[5] = target: HIV-1 Env of pseudovirus 249M B10 (HIV-1)
[6] = target: HIV-1 Env of pseudovirus 263-8 (HIV-1)
[7] = target: HIV-1 Env of pseudovirus 3016.v5.c45 (HIV-1)
[8] = target: HIV-1 Env of pseudovirus 3103.v3.c10 (HIV-1)
[9] = target: HIV-1 Env of pseudovirus 3301.v1.c24 (HIV-1)
[10] = target: HIV-1 Env of pseudovirus 6240_08_TA5_4622 (HIV-1)
[11] = target: HIV-1 Env of pseudovirus 6535.3 (HIV-1)
[12] = target: HIV-1 Env of pseudovirus 89-F1_2_25 (HIV-1)
[13] = target: HIV-1 Env of pseudovirus 9004SS_A3_4 (HIV-1)
[14] = target: HIV-1 Env of pseudovirus 928-28 (HIV-1)
[15] = target: HIV-1 Env of pseudovirus BJOX009000.02.4 (HIV-1)
[16] = target: HIV-1 Env of pseudovirus BJOX015000.11.5 (HIV-1)
[17] = target: HIV-1 Env of pseudovirus CAP45.2.00.G3 (HIV-1)
[18] = target: HIV-1 Env of pseudovirus CNE17 (HIV-1)
[19] = target: HIV-1 Env of pseudovirus CNE53 (HIV-1)
[20] = target: HIV-1 Env of pseudovirus Ce2060_G9 (HIV-1)
[21] = target: HIV-1 Env of pseudovirus Du156.12 (HIV-1)
[22] = target: HIV-1 Env of pseudovirus Du422.1 (HIV-1)
[23] = target: HIV-1 Env of pseudovirus HIV-0013095-2.11 (HIV-1)
[24] = target: HIV-1 Env of pseudovirus HIV-001428-2.42 (HIV-1)
[25] = target: HIV-1 Env of pseudovirus PVO.4 (HIV-1)
[26] = target: HIV-1 Env of pseudovirus Q23.17 (HIV-1)
[27] = target: HIV-1 Env of pseudovirus Q461.e2 (HIV-1)
[28] = target: HIV-1 Env of pseudovirus Q769.d22 (HIV-1)
[29] = target: HIV-1 Env of pseudovirus Q842.d12 (HIV-1)
[30] = target: HIV-1 Env of pseudovirus R2184.c04 (HIV-1)
[31] = target: HIV-1 Env of pseudovirus T250-4 (HIV-1)
[32] = target: HIV-1 Env of pseudovirus T257-31 (HIV-1)
[33] = target: HIV-1 Env of pseudovirus T278-50 (HIV-1)
[34] = target: HIV-1 Env of pseudovirus TRJO4551.58 (HIV-1)
[35] = target: HIV-1 Env of pseudovirus X1193_c1 (HIV-1)
[36] = target: HIV-1 Env of pseudovirus ZM247v1(Rev-) (HIV-1)

## 8ANC195 (antibody)
[1]
  neutralization IC50: > 50 µg/mL
  neutralization IC80: > 50 µg/mL
[2]
  neutralization IC50: > 50 µg/mL
  neutralization IC80: > 50 µg/mL
[3]
  neutralization IC50: > 50 µg/mL
  neutralization IC80: > 50 µg/mL
[4]
  neutralization IC50: > 50 µg/mL
  neutralization IC80: > 50 µg/mL
[5]
  neutralization IC50: > 50 µg/mL
  neutralization IC80: > 50 µg/mL
[6]
  neutralization IC50: > 50 µg/mL
  neutralization IC80: > 50 µg/mL
[7]
  IC50, titer in TZM.bl cells: 0.87 µg/mL
  IC80, titer in TZM.bl cells: > 50 µg/mL
[8]
  IC50, titer in TZM.bl cells: 48.1 µg/mL
  IC80, titer in TZM.bl cells: > 50 µg/mL
[9]
  IC50, titer in TZM.bl cells: > 50 µg/mL
  IC80, titer in TZM.bl cells: > 50 µg/mL
[10]
  neutralization IC50: > 50 µg/mL
  neutralization IC80: > 50 µg/mL
[11]
  neutralization IC50: 0.2 µg/mL
  neutralization IC80: 0.91 µg/mL
[12]
  IC50, titer in TZM.bl cells: > 50 µg/mL
  IC80, titer in TZM.bl cells: > 50 µg/mL
[13]
  neutralization IC50: 0.17 µg/mL
  neutralization IC80: 0.81 µg/mL
[14]
  neutralization IC50: > 50 µg/mL
  neutralization IC80: > 50 µg/mL
[15]
  IC50, titer in TZM.bl cells: 0.64 µg/mL
  IC80, titer in TZM.bl cells: 3.09 µg/mL
[16]
  IC50, titer in TZM.bl cells: 0.97 µg/mL
  IC80, titer in TZM.bl cells: 4.3 µg/mL
[17]
  neutralization IC50: 28.3 µg/mL
  neutralization IC80: > 50 µg/mL
[18]
  neutralization IC50: 2.59 µg/mL
  neutralization IC80: 11.1 µg/mL
[19]
  neutralization IC50: > 50 µg/mL
  neutralization IC80: > 50 µg/mL
[20]
  neutralization IC50: 6.2 µg/mL
  neutralization IC80: > 50 µg/mL
[21]
  neutralization IC50: 0.22 µg/mL
  neutralization IC80: 1.56 µg/mL
[22]
  neutralization IC50: > 50 µg/mL
  neutralization IC80: > 50 µg/mL
[23]
  neutralization IC50: 0.32 µg/mL
  neutralization IC80: 1.85 µg/mL
[24]
  neutralization IC50: > 50 µg/mL
  neutralization IC80: > 50 µg/mL
[25]
  neutralization IC50: 0.52 µg/mL
  neutralization IC80: 1.87 µg/mL
[26]
  neutralization IC50: 2.55 µg/mL
  neutralization IC80: 2.55 µg/mL
[27]
  neutralization IC50: 0.63 µg/mL
  neutralization IC80: 2.51 µg/mL
[28]
  neutralization IC50: 0.26 µg/mL
  neutralization IC80: 1.2 µg/mL
[29]
  neutralization IC50: > 30 µg/mL
  neutralization IC80: > 30 µg/mL
[30]
  IC50, titer in TZM.bl cells: 0.09 µg/mL
  IC80, titer in TZM.bl cells: 13 µg/mL
[31]
  IC50, titer in TZM.bl cells: > 50 µg/mL
  IC80, titer in TZM.bl cells: > 50 µg/mL
[32]
  neutralization IC50: 0.32 µg/mL
  neutralization IC80: 3.89 µg/mL
[33]
  IC50, titer in TZM.bl cells: > 50 µg/mL
  IC80, titer in TZM.bl cells: > 50 µg/mL
[34]
  neutralization IC50: 0.19 µg/mL
  neutralization IC80: 1.17 µg/mL
[35]
  IC50, titer in TZM.bl cells: 0.27 µg/mL
  IC80, titer in TZM.bl cells: 1.66 µg/mL
[36]
  neutralization IC50: 3.41 µg/mL
  neutralization IC80: 25.1 µg/mL
